Experimental data from patent US10800847.

Legend:
[1] = target: HLA-Cw*0304 (Cw10) (human); experiment: Luminex, regular beads (#7), 1:8
[2] = target: HLA-Cw*0401 (Cw4) (human); experiment: Luminex, regular beads (#7), 1:8
[3] = target: HLA-Cw*0501 (Cw5) (human); experiment: Luminex, regular beads (#7), 1:8
[4] = target: HLA-Cw*1203 (Cw12) (human); experiment: Luminex, regular beads (#7), 1:8
[5] = target: HLA-Cw*0302 (Cw10) (human); experiment: Luminex, regular beads (#7), 1:8
[6] = target: HLA-Cw*0202 (Cw2) (human); experiment: Luminex, regular beads (#7), 1:8
[7] = target: Albumin (negative control beads) (human or bovine); experiment: Luminex, regular beads (#7), 1:8
[8] = target: HLA-Cw*1402 (Cw14) (human); experiment: Luminex, regular beads (#7), 1:8
[9] = target: HLA-Cw*1601 (Cw16) (human); experiment: Luminex, regular beads (#7), 1:8
[10] = target: HLA-Cw*1701 (Cw17) (human); experiment: Luminex, regular beads (#7), 1:8
HLA-B*8201 (B82) (human) [11] = experiment: Luminex, regular beads (#7), 1:8
[12] = target: HLA-Cw*1802 (Cw18) (human); experiment: Luminex, regular beads (#7), 1:8
[13] = target: HLA-Cw*1502 (Cw15) (human); experiment: Luminex, regular beads (#7), 1:8
[14] = target: HLA-Cw*0303 (Cw9) (human); experiment: Luminex, regular beads (#7), 1:8
[15] = target: HLA-Cw*0102 (Cw1) (human); experiment: Luminex, regular beads (#7), 1:8
[16] = target: HLA-Cw*0702 (Cw7) (human); experiment: Luminex, regular beads (#7), 1:8
[17] = target: HLA-Cw*0304 (Cw10) (human); experiment: Luminex, iBead vs regular bead MFI, 1:8
[18] = target: HLA-Cw*0401 (Cw4) (human); experiment: Luminex, iBead vs regular bead MFI, 1:8
[19] = target: HLA-Cw*0501 (Cw5) (human); experiment: Luminex, iBead vs regular bead MFI, 1:8
[20] = target: HLA-Cw*0302 (Cw10) (human); experiment: Luminex, iBead vs regular bead MFI, 1:8
[21] = target: HLA-Cw*0202 (Cw2) (human); experiment: Luminex, iBead vs regular bead MFI, 1:8
[22] = target: Albumin (negative control beads) (human or bovine); experiment: Luminex, iBead vs regular bead MFI, 1:8
[23] = target: HLA-Cw*1402 (Cw14) (human); experiment: Luminex, iBead vs regular bead MFI, 1:8
[24] = target: HLA-Cw*1601 (Cw16) (human); experiment: Luminex, iBead vs regular bead MFI, 1:8
[25] = target: HLA-Cw*0602 (Cw6) (human); experiment: Luminex, iBead vs regular bead MFI, 1:8
[26] = target: HLA-Cw*1701 (Cw17) (human); experiment: Luminex, iBead vs regular bead MFI, 1:8
HLA-B*8201 (B82) (human) [27] = experiment: Luminex, iBead vs regular bead MFI, 1:8
[28] = target: HLA-Cw*1802 (Cw18) (human); experiment: Luminex, iBead vs regular bead MFI, 1:8
[29] = target: HLA-Cw*0801 (Cw8) (human); experiment: Luminex, iBead vs regular bead MFI, 1:8
[30] = target: HLA-Cw*1502 (Cw15) (human); experiment: Luminex, iBead vs regular bead MFI, 1:8
[31] = target: HLA-Cw*0303 (Cw9) (human); experiment: Luminex, iBead vs regular bead MFI, 1:8
[32] = target: HLA-Cw*0102 (Cw1) (human); experiment: Luminex, iBead vs regular bead MFI, 1:8
[33] = target: HLA-Cw*0702 (Cw7) (human); experiment: Luminex, iBead vs regular bead MFI, 1:8
HLA-B*1513 (B77) (human) = experiment: Luminex regular beads (#7), IVIg diluted 1:8
HLA-B*1510 (B71) (human) = experiment: Luminex regular beads (#7), IVIg diluted 1:8
HLA-B*0702 (B7) (human) = experiment: Luminex regular beads (#7), IVIg diluted 1:8
HLA-B*1503 (B72) (human) = experiment: Luminex regular beads (#7), IVIg diluted 1:8
HLA-B*1401 (B64) (human) = experiment: Luminex regular beads (#7), IVIg diluted 1:8
[34] = target: Serum albumin on negative control beads (HSA/BSA) (human or bovine); experiment: Luminex regular beads (#7), IVIg diluted 1:8
HLA-B*0801 (B8) (human) = experiment: Luminex regular beads (#7), IVIg diluted 1:8
HLA-B*1302 (B13) (human) = experiment: Luminex regular beads (#7), IVIg diluted 1:8
HLA-B*1801 (B18) (human) = experiment: Luminex regular beads (#7), IVIg diluted 1:8
HLA-B*1502 (B75) (human) = experiment: Luminex regular beads (#7), IVIg diluted 1:8
HLA-B*1511 (B75) (human) = experiment: Luminex regular beads (#7), IVIg diluted 1:8
HLA-B*1512 (B76) (human) = experiment: Luminex regular beads (#7), IVIg diluted 1:8
HLA-B*1516 (B63) (human) = experiment: Luminex regular beads (#7), IVIg diluted 1:8
HLA-B*1301 (B13) (human) = experiment: Luminex regular beads (#7), IVIg diluted 1:8

Q: Which results are given for “IVIg Octagam (Octapharma, Lachen, Switzerland) (antibody)”?
A: MFI [1]: 5550 MFI; MFI [2]: 9880 MFI; MFI [3]: 8770 MFI; MFI [4]: 8660 MFI; MFI [5]: 5610 MFI; MFI [6]: 9380 MFI; MFI [7]: 2340 MFI; MFI [8]: 8430 MFI; MFI [9]: 9260 MFI; MFI [10]: 8980 MFI; MFI (HLA-B*8201 (B82) (human) [11]): 5030 MFI; MFI [12]: 10600 MFI; MFI [13]: 4820 MFI; MFI [14]: 3350 MFI; MFI [15]: 7720 MFI; MFI [16]: 15300 MFI; Difference % [17]: -74%; Difference % [18]: -80%; Difference % [19]: -83%; Difference % [20]: -79%; Difference % [21]: -80%; Difference % [22]: -29%; Difference % [23]: -88%; Difference % [24]: -88%; Difference % [25]: -96%; Difference % [26]: -70%; Difference % (HLA-B*8201 (B82) (human) [27]): -90%; Difference % [28]: -92%; Difference % [29]: -85%; Difference % [30]: -95%; Difference % [31]: -64%; Difference % [32]: -77%; Difference % [33]: -89%; MFI (HLA-B*1513 (B77) (human)): 2260 MFI; MFI (HLA-B*1510 (B71) (human)): 1290 MFI; MFI (HLA-B*0702 (B7) (human)): 714 MFI; MFI (HLA-B*1503 (B72) (human)): 1060 MFI; MFI (HLA-B*1401 (B64) (human)): 2400 MFI; MFI [34]: 2340 MFI; MFI (HLA-B*0801 (B8) (human)): 2120 MFI; MFI (HLA-B*1302 (B13) (human)): 1940 MFI; MFI (HLA-B*1801 (B18) (human)): 246 MFI; MFI (HLA-B*1502 (B75) (human)): 861 MFI; MFI (HLA-B*1511 (B75) (human)): 3640 MFI; MFI (HLA-B*1512 (B76) (human)): 1130 MFI; MFI (HLA-B*1516 (B63) (human)): 3130 MFI; MFI (HLA-B*1301 (B13) (human)): 3680 MFI
